Here are results for one molecule from patent US20210388105A1 (ELPISCIENCE SUZHOU BIOPHARMA, published 2021).

In assay [1] the target is T1, human CD39 (full length, on cells) (human, UniProt P49961 1-510).
T1 construct: Recombinant on CHOK1-hCD39 cells or natural on SK-MEL-28, SK-MEL-5 and MOLP-8 cells; the cell line is named under assay; also called hCD39; ENTPD1
T1 sequence: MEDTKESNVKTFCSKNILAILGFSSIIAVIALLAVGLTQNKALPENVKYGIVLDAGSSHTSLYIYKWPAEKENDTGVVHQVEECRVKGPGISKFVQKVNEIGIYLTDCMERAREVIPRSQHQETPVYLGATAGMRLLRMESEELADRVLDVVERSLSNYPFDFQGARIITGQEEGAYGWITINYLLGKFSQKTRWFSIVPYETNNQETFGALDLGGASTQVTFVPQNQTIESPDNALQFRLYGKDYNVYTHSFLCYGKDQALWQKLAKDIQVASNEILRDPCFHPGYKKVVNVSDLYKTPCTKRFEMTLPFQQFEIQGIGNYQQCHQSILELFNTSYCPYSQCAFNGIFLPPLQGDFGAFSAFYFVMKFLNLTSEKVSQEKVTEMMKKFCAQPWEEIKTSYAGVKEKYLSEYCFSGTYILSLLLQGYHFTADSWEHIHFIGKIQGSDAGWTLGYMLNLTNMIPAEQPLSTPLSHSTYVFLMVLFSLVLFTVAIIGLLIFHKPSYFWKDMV
The experiment in a line: FACS, MOLP-8 cells. The method, boiled down: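 MOLP-8 cells expressing human CD39 were incubated 30 min at 4 °C with graded concentrations of anti-CD39 antibody. Binding was detected with a fluorescent anti-mouse or anti-human IgG secondary (30 min, 4 °C) and flow cytometry. EC50 is the antibody concentration reaching 50% of the signal.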
(A flow cytometer gives signals particle by particle.)

For assay [2], the target named is T1, human CD39 (full length, on cells). As to the kind of experiment: cell-based or functional assay.
For another assay, the target named is T2, ENTPD3 protein (Homo sapiens (Human), UniProt O75355 44-485).
T2 construct: also called CD39L3; ENTPDase 3
T2 sequence: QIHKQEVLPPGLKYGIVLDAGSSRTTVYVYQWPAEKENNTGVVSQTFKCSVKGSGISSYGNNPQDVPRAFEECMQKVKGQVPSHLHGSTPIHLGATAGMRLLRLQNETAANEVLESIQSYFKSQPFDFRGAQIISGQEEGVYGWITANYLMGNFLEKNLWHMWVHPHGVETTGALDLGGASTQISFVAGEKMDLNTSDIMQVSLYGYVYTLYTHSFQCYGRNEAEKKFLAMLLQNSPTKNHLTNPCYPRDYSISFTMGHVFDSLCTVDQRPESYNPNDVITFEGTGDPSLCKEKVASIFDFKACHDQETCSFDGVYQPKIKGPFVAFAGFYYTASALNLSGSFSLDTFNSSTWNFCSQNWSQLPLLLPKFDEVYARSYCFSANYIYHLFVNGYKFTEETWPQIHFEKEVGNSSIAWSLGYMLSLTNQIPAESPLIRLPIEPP
As to the kind of experiment: ELISA on coated ENTPD3 protein, anti-hIgG-HRP, OD450. As for the experimental part:
(§1) Binding specificity of the purified humanized antibody hu23.H5L5 against ENTPDase family members was detected by ELISA assay. Briefly, ENTPD1 (i.e. CD39) and ENTPD 2/3/5/6 proteins were coated on 96-well ELISA plates at 4° C. overnight, next day the ELISA plates were washed and blocked using blocking buffer (1% BSA in PBS with 0.05% Tween20) 200 μL/well for 2 hours. Then hu23.H5L5 gradients were duplicated into the wells and stained with anti-hIgG-HRP. After plate washing, the plates were developed with TMB substrate and stopped by 2N HCl. The OD450 were recorded using plate reader and platted by Graphpad Prism.
In general terms: An ELISA detects its analyte on a solid surface through an enzyme-linked reagent.

For assay [3], the target named is T3, mouse CD39 (full length, on CHOK1-mCD39 cells) (mouse, UniProt P55772 1-510).
T3 construct: whole, on cells
T3 sequence (looked up): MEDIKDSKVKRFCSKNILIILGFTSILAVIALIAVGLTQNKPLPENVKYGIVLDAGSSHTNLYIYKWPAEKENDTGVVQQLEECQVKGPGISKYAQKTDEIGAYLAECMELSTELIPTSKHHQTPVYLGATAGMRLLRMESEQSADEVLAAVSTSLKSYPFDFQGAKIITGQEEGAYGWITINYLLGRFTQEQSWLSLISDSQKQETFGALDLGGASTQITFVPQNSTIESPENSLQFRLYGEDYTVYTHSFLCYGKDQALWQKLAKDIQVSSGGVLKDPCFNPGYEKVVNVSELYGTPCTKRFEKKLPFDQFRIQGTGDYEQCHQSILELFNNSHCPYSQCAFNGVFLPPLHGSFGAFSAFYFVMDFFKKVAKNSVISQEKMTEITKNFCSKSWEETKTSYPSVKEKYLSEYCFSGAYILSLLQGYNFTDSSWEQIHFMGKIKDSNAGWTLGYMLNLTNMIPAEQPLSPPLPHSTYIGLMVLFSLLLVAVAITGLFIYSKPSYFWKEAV
As to the kind of experiment: FACS on CHO-k1/mCD39 cells, MFI [Continued) E].

The next assay deals with T4, ENTPD5 protein (Homo sapiens (Human), UniProt O75356 25-428).
T4 construct: also called CD39L4; ENTPDase 5
T4 sequence: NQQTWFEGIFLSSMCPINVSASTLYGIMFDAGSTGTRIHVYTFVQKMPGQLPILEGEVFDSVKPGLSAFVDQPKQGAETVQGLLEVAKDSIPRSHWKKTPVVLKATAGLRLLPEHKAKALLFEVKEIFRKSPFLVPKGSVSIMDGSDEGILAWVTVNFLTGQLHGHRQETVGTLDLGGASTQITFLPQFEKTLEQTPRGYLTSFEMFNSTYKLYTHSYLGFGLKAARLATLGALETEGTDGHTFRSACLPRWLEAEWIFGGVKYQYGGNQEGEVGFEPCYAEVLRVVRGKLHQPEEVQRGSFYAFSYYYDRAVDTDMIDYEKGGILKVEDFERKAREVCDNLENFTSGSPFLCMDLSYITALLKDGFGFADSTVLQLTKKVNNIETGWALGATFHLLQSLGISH
As to the kind of experiment: ELISA on coated ENTPD5 protein, anti-hIgG-HRP, OD450. Here is the method: as §1

B1: hu23.H5L5 (antibody, V domains shown)
VH: QVQLVQSGAEVKKPGASVKVSCKASGYNLKDTFLHWVRQAPGQGLEWMGRIDPANGNIKYDPKFQGRVTITADTSANTAYMELISLRSEDTAVYYCANSPYYYGSGYRIFDVWGQGTTVTVSS
VL: QIVLTQSPATLSLSPGERATLSCSAFSSVNYMHWYQQKPGQAPRLLIYTTSNLASGIPTRFSGSGSGTSYTLTISSLEPEDFAVYYCQQRSTYPFTFGQGTKLEIK
notes: humanized c23
The term EC50 denotes the concentration needed to bring the measured effect to its halfway point. The low end stands for a more potent agent, the high end for a less potent agent. Take B1: a half-maximal response in assay [1] (EC50) required 0.177 nM. Moreover, the “ATPase inhibition IC50 on SK-MEL-28 cells” value in assay [2] is 0.122 nM. The binding result with ENTPD3 protein is given as “no binding (tested: about 66 nM)”; in assay [3], “no binding”; in the assay with ENTPD5 protein it was “no binding (tested: about 66 nM)”.
